# Source: publication PMC5407892
# Experiments:
# [1] = tested on: EhDNAligI full-length (DNA ligase I) (Entamoeba histolytica); experiment: fluorescence anisotropy; conditions: 3' dideoxy-C at the nick that halts ligation; Anisotropy: 50 mM Tris/HCl pH 7.5, 25 mM NaCl, 5 mM DTT, 10 mM MgCl2, 250 ug/mL BSA, 1 mM ATP, 30 C; footprinting: 50 mM Tris/HCl pH 7.5, 6.6 mM MgCl2, 5 mM …
# [2] = tested on: EhDNAligI full-length (DNA ligase I);EhPCNA (Entamoeba histolytica;Entamoeba histolytica); experiment: fluorescence anisotropy; conditions: 3' dideoxy-C at the nick that halts ligation; Anisotropy: 50 mM Tris/HCl pH 7.5, 25 mM NaCl, 5 mM DTT, 10 mM MgCl2, 250 ug/mL BSA, 1 mM ATP, 30 C; footprinting: 50 mM Tris/HCl pH 7.5, 6.6 mM MgCl2, 5 mM …
# [3] = tested on: EhDNAligI full-length (DNA ligase I);HsPCNA (Entamoeba histolytica;Homo sapiens); experiment: fluorescence anisotropy; conditions: with HsPCNA, 10 mM Mg2+, 1 mM ATP, 3' dideoxy-C at the nick that halts ligation, Anisotropy: 50 mM Tris/HCl pH 7.5, 25 mM NaCl, 5 mM DTT, 10 mM MgCl2, 250 ug/mL BSA, 30 C, footprinting: 50 mM Tris/HCl pH 7.5, 6.6 mM MgCl2, 5 mM …
# [4] = tested on: EhDNAligI ΔDBD;EhPCNA (Entamoeba histolytica;Entamoeba histolytica); experiment: fluorescence anisotropy; conditions: 3' dideoxy-C at the nick that halts ligation; Anisotropy: 50 mM Tris/HCl pH 7.5, 25 mM NaCl, 5 mM DTT, 10 mM MgCl2, 250 ug/mL BSA, 1 mM ATP, 30 C; footprinting: 50 mM Tris/HCl pH 7.5, 6.6 mM MgCl2, 5 mM …
# [5] = tested on: EhDNAligI ΔPIP (Entamoeba histolytica); experiment: fluorescence anisotropy; conditions: 3' dideoxy-C at the nick that halts ligation; Anisotropy: 50 mM Tris/HCl pH 7.5, 25 mM NaCl, 5 mM DTT, 10 mM MgCl2, 250 ug/mL BSA, 1 mM ATP, 30 C; footprinting: 50 mM Tris/HCl pH 7.5, 6.6 mM MgCl2, 5 mM …
# [6] = tested on: EhDNAligI ΔPIP;EhPCNA (Entamoeba histolytica;Entamoeba histolytica); experiment: fluorescence anisotropy; conditions: 3' dideoxy-C at the nick that halts ligation; Anisotropy: 50 mM Tris/HCl pH 7.5, 25 mM NaCl, 5 mM DTT, 10 mM MgCl2, 250 ug/mL BSA, 1 mM ATP, 30 C; footprinting: 50 mM Tris/HCl pH 7.5, 6.6 mM MgCl2, 5 mM …
# [7] = molecular target: EhDNAligI-Phe11Ala:Phe12Ala (Entamoeba histolytica)
# [8] = molecular target: Entamoeba histolytica DNA ligase I, full-length (Entamoeba histolytica)
# [9] = molecular target: EhDNAligI deletion mutant lacking its first 39 amino acids including the PIP box (Entamoeba histolytica)
# [10] = molecular target: Entamoeba histolytica DNA ligase I, full-length (Entamoeba histolytica); remark: listed apart in the source
substance,measurement,setting,value
3'-FAM nicked dsDNA (anisotropy substrate),Kd,[1],72.1 nM
same,Kd,[2],6.2 nM
same,Kd,[3],11.3 nM
same,Kd,[4],95.5 nM
same,Kd,[5],82.1 nM
same,Kd,[6],10.2 nM
EhPCNA-V127A-I129A (natural protein),stimulation of nick-sealing activity (time course) by the EhPCNA mutant,[7],< 2.4 fold
EhPCNA-Δ254 (natural protein),stimulation of nick-sealing activity (time course) by the EhPCNA mutant,[7],< 2.4 fold
Entamoeba histolytica proliferating cell nuclear antigen (natural protein),"affinity of the ligase for 3′-FAM-labeled nicked DNA by fluorescence anisotropy, with against without EhPCNA",[8],11 fold
same,"catalytic efficiency (k cat/K m) of steady-state ligation, with against without EhPCNA",[9],> 18 fold
same,"catalytic efficiency (k cat/K m) of steady-state ligation, with against without EhPCNA",[10],> 18 fold
same,stimulation of nick-sealing activity (time course) by wild-type EhPCNA,[7],9.8 fold
